{"source": "paper PMC11960969", "about": "“Mdga2 deficiency leads to an aberrant activation of BDNF/TrkB signaling that underlies autism-relevant synaptic and behavioral changes in mice” (PLOS Biology, 2025)", "key": {"TrkB (TrkB-VN)": {"test_system": "TrkB (TrkB-VN)", "test": "BiFC assay in HeLa cells (TrkB-VN with MDGA2-VC or ΔMAM-VC)", "type": "cell-based, human", "settings": "24 h, Venus fluorescence", "protocol": "(§1) Fig 3 MDGA2 interacts with TrkB and suppresses TrkB activity. (A) Primary hippocampal neurons derived from Mdga2^ +/− (Het) mice and their wild-type (WT) littermates at DIV 7 were treated with different doses of BDNF for 30 min. Equal amounts of protein lysates were subjected to immunoprecipitation (IP) with an anti-TrkB antibody, followed by immunoblotting with an anti-phosphotyrosine (pTyr) antibody or the anti-TrkB antibody. The pTyr levels were quantified by densitometry, normalized to total TrkB levels, and then compared to those of WT controls. n = 3 per group. (B) WT mouse brain lysates were subjected to IP with an anti-MDGA2 antibody and a control IgG, and immunoblotted (IB) for the components indicated. mBDNF, mature BDNF; ImBDNF, immature BDNF. […] Immunoprecipitated TrkB levels were quantified by densitometry, normalized to input levels, and compared to respective controls (set to one arbitrary units). n = 3 per group. […] Levels of phosphorylated proteins were quantified by densitometry, normalized to respective total protein levels and compared to controls (set to one arbitrary units). n = 6 per group. […] P-values were determined by two-tailed unpaired Student t-test in (A) and one-way ANOVA with Tukey’s multiple comparisons test in (H, I, J). *p < 0.05, **p < 0.01, ***p < 0.001, ns: not significant. […]"}, "TrkB (TrkB-Flag)": {"test_system": "TrkB (TrkB-Flag)", "test": "Co-IP of MDGA2 and its truncations with TrkB-Flag in HEK293T cells", "type": "binding, human", "settings": "HEK293T cells co-transfected with TrkB-Flag and GFP-tagged MDGA2 constructs", "protocol": "as §1, with “BDNF. (C) Hippocampal neurons from WT mice at DIV 7 were immunostained with antibodies against MDGA2 (red) and TrkB (green), and then counter-stained with DAPI (blue). Images were acquired by a confocal microscope. Scale bar: 10 μm. (D) Surface plasmon resonance (SPR) analysis of the binding between recombinant MDGA2 protein and recombinant TrkB protein. TrkB was immobilized on a Biacore CM5 chip and tested for its binding with MDGA2 at the concentrations indicated. (E) Computer simulation of the binding mode of TrkB and MDGA2. The predicted binding domain of TrkB (the d5 domain) is highlighted by a red square and labeled in brown. The predicted binding domain of MDGA2 (the MAM domain) is highlighted by a red square and labeled in yellow.” for “BDNF.”"}, "BDNF-TrkB interaction": {"test_system": "BDNF-TrkB interaction", "test": "BDNF-TrkB Co-IP (anti-BDNF or anti-TrkB) in primary neurons / brain of Het, KO, WT and in WT neurons transfected with MDGA2 or ΔMAM", "type": "cell-based, mouse", "settings": "IP anti-BDNF, Fig 3I", "protocol": "as §1"}, "[1]": {"test_system": "TrkB signaling (pTrkB, pAkt, pmTOR)", "test": "Immunoblotting of TrkB/Akt/mTOR phosphorylation in primary neurons transfected with MDGA2, ΔMAM or V930I", "type": "cell-based, mouse", "settings": "for pAkt level normalized to total protein / pTrkB level normalized to total protein / pmTOR level normalized to total protein: KO neurons transfected, WT/Ctrl set to one", "protocol": "Fig 3 MDGA2 interacts with TrkB and suppresses TrkB activity. (A) Primary hippocampal neurons derived from Mdga2^ +/− (Het) mice and their wild-type (WT) littermates at DIV 7 were treated with different doses of BDNF for 30 min. Equal amounts of protein lysates were subjected to immunoprecipitation (IP) with an anti-TrkB antibody, followed by immunoblotting with an anti-phosphotyrosine (pTyr) antibody or the anti-TrkB antibody. The pTyr levels were quantified by densitometry, normalized to total TrkB levels, and then compared to those of WT controls. n = 3 per group. (B) WT mouse brain lysates were subjected to IP with an anti-MDGA2 antibody and a control IgG, and immunoblotted (IB) for the components indicated. mBDNF, mature BDNF; ImBDNF, immature BDNF. (C) Hippocampal neurons from WT mice at DIV 7 were immunostained with antibodies against MDGA2 (red) and TrkB (green), and then counter-stained with DAPI (blue). Images were acquired by a confocal microscope. Scale bar: 10 μm. (D) Surface plasmon resonance (SPR) analysis of the binding between recombinant MDGA2 protein and recombinant TrkB protein. TrkB was immobilized on a Biacore CM5 chip and tested for its binding with MDGA2 at the concentrations indicated. (E) Computer simulation of the binding mode of TrkB and MDGA2. The predicted binding domain of TrkB (the d5 domain) is highlighted by a red square and labeled in brown. The predicted binding domain of MDGA2 (the MAM domain) is highlighted by a red square and labeled in yellow. (F) HEK293T cells were co-transfected with TrkB-Flag and GFP-tagged full-length MDGA2 (MDGA2-GFP) or an MDGA2 deletion fragment lacking the entire MAM domain (ΔMAM-GFP). Cell lysates were subjected to IP with control IgG and antibodies against Flag or GFP, and immunoblotted for the components indicated. […] The scheme of MDGA2-ΔMAM is also shown. (G) HeLa cells were co-transfected with TrkB that is tagged with the N-terminal Venus fragment (TrkB-VN) and full-length MDGA2 or MDGA2-ΔMAM that are tagged with the C-terminal Venus fragment (MDGA2-VC or ΔMAM-VC) for 24 h. After immunostaining with antibodies against MDGA2/MDGA2-ΔMAM (pink) and TrkB (red), cells were observed by confocal microscopy. Venus signal (green) indicates the interaction between MDGA2 and TrkB. Schematic diagrams depicting the BiFC assay are also shown. Scale bars: 10 μm. (H, I) Equal amounts of protein lysates from primary neurons derived from Het, KO, and their WT littermate mice (H), and from WT primary neurons transfected with GFP control, MDGA2-GFP or ΔMAM-GFP (I) were subjected to IP with IgG and an anti-BDNF antibody, and then immunoblotted for the components indicated. Immunoprecipitated TrkB levels were quantified by densitometry, normalized to input levels, and compared to respective controls (set to one arbitrary units). n = 3 per group. (J) Neurons derived from KO mice were transfected with GFP control (Ctrl), MDGA2-GFP, or MDGA2-ΔMAM-GFP, and neurons derived from their WT littermates were transfected with GFP control (Ctrl). Equal amounts of protein lysates were subjected to immunoblotting for the proteins indicated. Levels of phosphorylated proteins were quantified by densitometry, normalized to respective total protein levels and compared to controls (set to one arbitrary units). n = 6 per group. Data represent mean ± SEM. P-values were determined by two-tailed unpaired Student t-test in (A) and one-way ANOVA with Tukey’s multiple comparisons test in (H, I, J). *p < 0.05, **p < 0.01, ***p < 0.001, ns: not significant. The data underlying this figure can be found in S1 Data, specifically in the sheet labeled “Figure 3”.\nFig 7 The autism spectrum disorder (ASD)-associated MDGA2 V930I mutation impairs the MDGA2-TrkB interaction and MDGA2’s inhibitory effect on the tyrosine kinase B (TrkB) signaling. (A) Schematic depiction of the WT human MDGA2 and its V930I mutation constructs that are tagged with GFP. […]"}}, "data": [{"molecule": "MDGA2-ΔMAM: truncated form of MDGA2 lacking its MAM domain (protein, left off: GFP, end not stated, kept, truncated form of MDGA2 lacking its MAM domain) PPTVRIVHSGLACNIEEERYSERVYTIREGETLELTCLVTGHPRPQIRWTKTAGSASDRFQDSSVFNETLRITNIQRHQGGRYYCKAENGLGSPAIKSIRVDVYYLDDPVVTVHQSIGEAKEQFYYERTVFLRCVANSNPPVRYSWRRGQEVLLQGSDKGVEIYEPFFTQGETKILKLKNLRPQDYANYSCIASVRNVCNIPDKMVSFRLSNKTASPSIKLLVDDPIVVNPGEAITLVCVTTGGEPAPSLTWVRSFGTLPEKTVLNGGTLTIPAITSDDAGTYSCIANNNVGNPAKKSTNIIVRALKKGRFWITPDPYHKDDNIQIGREVKISCQVEAVPSEELTFSWFKNGRPLRSSERMVITQTDPDVSPGTTNLDIIDLKFTDFGTYTCVASLKGGGISDISIDVNISSSTVPPNLTVPQEKSPLVTREGDTIELQCQVTGKPKPIILWSRADKEVAMPDGSMQMESYDGTLRIVNVSREMSGMYRCQTSQYNGFNVKPREALVQLIVQYPPAVEPAFLEIRQGQDRSVTMSCRVLRAYPIRVLTYEWRLGNKLLRTGQFDSQEYTEYAVKSLSNENYGVYNCSIINEAGAGRCSFLVTGKAYAPEFYYDTYNPVWQNRHRVYSYSLQWTQMNPDAVDRIVAYRLGIRQAGQQRWWEQEIKINGNIQKGELITYNLTELIKPEAYEVRLTPLTKFGEGDSTIRVIKYSAPVNPHLREQDLATKNSVD", "values": [{"measurement": "interaction with TrkB (BiFC)", "setting": "TrkB (TrkB-VN)", "value": "not MDGA2-ΔMAM"}, {"measurement": "interaction with TrkB (Co-IP)", "setting": "TrkB (TrkB-Flag)", "value": "abolished the MDGA2-TrkB interaction"}, {"measurement": "interaction between BDNF and TrkB upon overexpression", "setting": "BDNF-TrkB interaction", "value": "not MDGA2-ΔMAM"}, {"measurement": "pAkt level normalized to total protein", "setting": "[1]; replicate 1", "value": 2.92, "unit": "arbitrary units"}, {"measurement": "pTrkB level normalized to total protein", "setting": "[1]; replicate 1", "value": 2.14, "unit": "arbitrary units"}, {"measurement": "pmTOR level normalized to total protein", "setting": "[1]; replicate 1", "value": 3.01, "unit": "arbitrary units"}, {"measurement": "pAkt level normalized to total protein", "setting": "[1]; replicate 2", "value": 2.51, "unit": "arbitrary units"}, {"measurement": "pTrkB level normalized to total protein", "setting": "[1]; replicate 2", "value": 2.17, "unit": "arbitrary units"}, {"measurement": "pmTOR level normalized to total protein", "setting": "[1]; replicate 2", "value": 2.5, "unit": "arbitrary units"}, {"measurement": "pAkt level normalized to total protein", "setting": "[1]; replicate 3", "value": 2.41, "unit": "arbitrary units"}, {"measurement": "pTrkB level normalized to total protein", "setting": "[1]; replicate 3", "value": 2.23, "unit": "arbitrary units"}, {"measurement": "pmTOR level normalized to total protein", "setting": "[1]; replicate 3", "value": 2.06, "unit": "arbitrary units"}, {"measurement": "pAkt level normalized to total protein", "setting": "[1]; replicate 4", "value": 2.21, "unit": "arbitrary units"}, {"measurement": "pTrkB level normalized to total protein", "setting": "[1]; replicate 4", "value": 2.41, "unit": "arbitrary units"}, {"measurement": "pmTOR level normalized to total protein", "setting": "[1]; replicate 4", "value": 1.59, "unit": "arbitrary units"}, {"measurement": "pAkt level normalized to total protein", "setting": "[1]; replicate 5", "value": 1.76, "unit": "arbitrary units"}, {"measurement": "pTrkB level normalized to total protein", "setting": "[1]; replicate 5", "value": 2.01, "unit": "arbitrary units"}, {"measurement": "pmTOR level normalized to total protein", "setting": "[1]; replicate 5", "value": 1.49, "unit": "arbitrary units"}, {"measurement": "pAkt level normalized to total protein", "setting": "[1]; replicate 6", "value": 1.68, "unit": "arbitrary units"}, {"measurement": "pTrkB level normalized to total protein", "setting": "[1]; replicate 6", "value": 1.69, "unit": "arbitrary units"}, {"measurement": "pmTOR level normalized to total protein", "setting": "[1]; replicate 6", "value": 1.31, "unit": "arbitrary units"}, {"measurement": "overactivation of TrkB signaling (pTrkB, pAkt, pmTOR) upon expression", "setting": "[1]; Mdga2-/- neurons, Fig 3J, n = 6", "value": "not MDGA2-ΔMAM"}]}]}
